The text below walks through data of patent US11535650 (RA PHARMACEUTICALS, dated 2022).

Starred links: 1 amine or outer side, 2 acyl side, 3 side chain; linkers in the order of their positions; H or OH if unused. Positions of bridges follow the written chain, without caps; N, C: chain ends. Non-standard residues stand in square brackets, D forms with d. No end group written: not given here. mXylyl = bridging moiety between residues (mXylyl(i,j)); Trp(7-aza) = N[C@@H](Cc1c[nH]c2ncccc12)C(=O)O; pXylylene = c1cc(C[*:2])ccc1C[*:1]; Phg = N[C@H](C(=O)O)c1ccccc1; Tle = CC(C)(C)[C@H](N)C(=O)O; NMeS = CN[C@@H](CO)C(=O)O; Nva = CCC[C@H](N)C(=O)O

For experiment [1], the target named is T1, human C5 protein (human, UniProt P01031 19-673; P01031 678-1676). Description: cell-based or functional assay.
The target in experiment [2] is T1, human C5 protein. The experiment in a line: fluorescence polarization, 25 nM R3076 with increasing concentrations of C5, average of 10 to 60 minutes. How it is done: Polarization was measured over time, until binding reached equilibrium. K_D was determined using Graphpad Prism (using "Saturating Binding Curves, One Site—Specific Binding With Hill Slope" as the curve fit to determine K_D).

The target in experiment [3] is T1, human C5 protein. Description: competitive fluorescence polarization vs probe R3076, Exp 1. How it is done:
(§1) Test articles listed in Table 7 were subsequently diluted in DMSO then assay buffer, comprising 10 2-fold dilutions and were then added to the assay plate in triplicate, rapidly. The assay plate was then incubated in the Paradigm (Molecular Devices, Sunnyvale, Calif.) plate reader for 60 minutes at 25° C.
(§2) After incubation for 60 minutes, the plate was read using the Paradigm FP protocol (Molecular Devices, Sunnyvale, Calif.) and raw polarization values were imported into Graphpad Prism.
For orientation: In fluorescence polarisation assays a small probe gives low polarisation when free and higher when bound to something large.

The target of experiment [4] is T1, human C5 protein. Description: competitive fluorescence polarization vs probe R3076, Exp 2. The procedure: as §1, §2
Experiment [5] concerns the target T1, human C5 protein. The experiment in a line: competitive fluorescence polarization vs probe R3076, average of two experiments. The procedure: as §1, §2
The target in experiment [6] is T1, human C5 protein. The experiment in a line: cell-based or functional assay. The source holds these as a separate data set.

B1: R3076 (peptide)
peptide: VVYENGYWEYPGVK
modifications: Ac-Nvl-Nvl-Y-E-N-Tbg-Y-azaTrp-E-Y-P-Chg-Nvl-K-(BODIPY-TMR-X) NH2
notes: R3072 with BODIPY-TMR dye on the C-terminal lysine; fluorescent probe of the FP assay; also called Probe R3076; labeled probe
By Kd is commonly meant a measure of binding affinity in units of concentration. B1: the “Avg. IC50, human hemolysis assay (complete human sera)” value (“Avg. IC50, human hemolysis assay” for short) in the experiment with human C5 protein [1] amounted to 297 nM. The Kd with human C5 protein [2] came out at 8.07 nM.

B2: R3003 (peptide)
peptide: Ac-[Nva]CYEN[Tle]Y[Trp(7-aza)]EYP[Phg]P-NH2
SMILES: CCC[C@H](NC(C)=O)C(=O)N[C@@H](CS)C(=O)N[C@@H](Cc1ccc(O)cc1)C(=O)N[C@@H](CCC(=O)O)C(=O)N[C@@H](CC(N)=O)C(=O)N[C@H](C(=O)N[C@@H](Cc1ccc(O)cc1)C(=O)N[C@@H](Cc1c[nH]c2ncccc12)C(=O)N[C@@H](CCC(=O)O)C(=O)N[C@@H](Cc1ccc(O)cc1)C(=O)N1CCC[C@H]1C(=O)N[C@H](C(=O)N1CCC[C@H]1C(N)=O)c1ccccc1)C(C)(C)C
By IC50 is commonly meant the midpoint of a concentration-inhibition curve. A high value points to weaker potency in that assay. As a reminder, the Ki is the dissociation constant of the complex between target and ligand, obtained from inhibition or displacement. Read a high Ki as lower affinity. On to B2, for which the “Avg. IC50, human hemolysis assay” value with human C5 protein [1] worked out at 13.9 nM. Besides, the IC50 is 72.7 nM in the experiment with human C5 protein [3], 64.1 nM with human C5 protein [4] and 68.4 nM in the experiment with human C5 protein [5]. The Ki stood at 10.4 nM with human C5 protein [3], 8.69 nM with human C5 protein [4] and 9.54 nM in the experiment with human C5 protein [5].

For VCYENGYWEYPGV (Ac-Nvl-C-Y-E-N-Tbg-Y-azaTrp-E-Y-P-Phg-Nvl-NH2) [R3002], the “IC50, C5a EIA on supernatant of human RBC hemolysis assay” value with human C5 protein [6] was 5.4 nM.

In the case of Ac-[Nva]C[Phg]T[Trp(7-aza)]EY[NMeS]HC[Nva]-NH2 (linker 2-10 via pXylylene) [R3050], the “Avg. IC50, human hemolysis assay” value with human C5 protein [1] came out at 42.9 nM. Further, the results for the half-maximal inhibitory concentration (IC50) with human C5 protein [3], with human C5 protein [4] and with human C5 protein [5] were 267 nM, 293 nM and 280 nM, respectively. The results for the Ki with human C5 protein [3], with human C5 protein [4] and in the experiment with human C5 protein [5] were 71.1 nM, 57.6 nM and 64.3 nM, respectively.

Ac-[Nva]C[Phg]T[Trp(7-aza)]EY[NMeS]HC[Nva]P[Nva]-NH2 (linker 2-10 via mXylyl) [R3008]: in the experiment with human C5 protein [6], the “IC50, C5a EIA on supernatant of human RBC hemolysis assay” value amounted to 54.5 nM and the “IC50, membrane attack complex (MAC) EIA on supernatant of human RBC hemolysis assay” value came out at 33 nM. Moreover, the “Avg. IC50, human hemolysis assay” value in the experiment with human C5 protein [1] is 97 nM.

For the molecule MCVERFCDVYWE-NH2 (linker 2-7 via mXylyl) [R3043], the “Avg. IC50, human hemolysis assay” value with human C5 protein [1] is 934 nM. The IC50 with human C5 protein [3] came to 4330 nM; with human C5 protein [4], 4120 nM; in the experiment with human C5 protein [5], 4230 nM. Also, the Ki with human C5 protein [3] amounted to 866 nM; with human C5 protein [4] it was 882 nM; with human C5 protein [5], 874 nM.
